# From FireProtDB (doi:10.1016/j.jmb.2005.09.061)
# “And” between values parts separate entries of the source, which are not always exact repeats. Equal values may be shown once.
# B1: Alpha-lactalbumin, P00712 (parent)
# chain: MMSFVSLLLVGILFHATQAEQLTKCEVFQKLKDLKDYGGVSLPEWVCTAFHTSGYDTQAIVQNNDSTEYGLFQINNKIWCKDDQNPHSRNICNISCDKFLDDDLTDDIVCAKKILDKVGINYWLAHKALCSEKLDQWLCEKL
# Variants of: B1
# Conditions: Capra hircus; pH 7; Thermal; CD; sodium cacodylate 50 mM; NaCl 50 mM; reversible: Yes; structure 1HFY; whole UniProt chain shown
Variant,Tm,"change of melting temperature, mutant - wild type (higher = more stable)",heat capacity change of unfolding,unfolding enthalpy (van 't Hoff)
T57A,59 °C and 54.1 °C,-6.8 °C and -4.9 °C,1.8 kcal/mol/K,68.8 kcal/mol and 62.5 kcal/mol
